US20130236458A1 (AbbVie / Abbott, published 2013)

B1: DVD2180 (bispecific antibody)
VH: EVQLVQSGAEVKKPGASVKVSCKASGYTFTTYGVSWVRQAPGQGLEWMGEIYPGNYNTYYNEKFRGRVTMTTDTSTSTAYMELRSLRSDDTAVYYCARWRTSYFSDYGYFDYWGQGTTVTVSSASTKGPEVQLVQSGAEVKKPGESVKISCKASGGSFRSYGISWVRQAPGQGLEWMGGITHFFGITDYAQKFQGRVTITADESTTTAYMELSGLTSDDTAVYYCAREPNDFWNGYYDTHDFDSWGQGTTVTVSS
VL: DVVMTQSPLSLPVTLGQPASISCRSSQSLVHSHGNTYLHWYQQRPGQSPRLLIYTVSNRFSGVPDRFSGSGSGTDFTLKISRVEAEDVGVYYCSQSTHVPYTFGGGTKVEIKRTVAAPSVFIFPPEIVLTQSPDFQSVTPKEKVTITCRASQNIGSELHWYQQKPDQSPKLLIKYASHSISGVPSRFSGSGSGTDFTLTINGLEAEDAATYYCHQSDTLPHTFGQGTKVDIKR
B2: DVD2182 (bispecific antibody)
VH: EVQLVQSGAEVKKPGASVKVSCKASGYTFTTYGVSWVRQAPGQGLEWMGEIYPGNYNTYYNEKFRGRVTMTTDTSTSTAYMELRSLRSDDTAVYYCARWRTSYFSDYGYFDYWGQGTTVTVSSASTKGPSVFPLAPEVQLVQSGAEVKKPGESVKISCKASGGSFRSYGISWVRQAPGQGLEWMGGITHFFGITDYAQKFQGRVTITADESTTTAYMELSGLTSDDTAVYYCAREPNDFWNGYYDTHDFDSWGQGTTVTVSS
VL: DVVMTQSPLSLPVTLGQPASISCRSSQSLVHSHGNTYLHWYQQRPGQSPRLLIYTVSNRFSGVPDRFSGSGSGTDFTLKISRVEAEDVGVYYCSQSTHVPYTFGGGTKVEIKRTVAAPEIVLTQSPDFQSVTPKEKVTITCRASQNIGSELHWYQQKPDQSPKLLIKYASHSISGVPSRFSGSGSGTDFTLTINGLEAEDAATYYCHQSDTLPHTFGQGTKVDIKR
B3: DVD2148 (bispecific antibody)
VH: EVTLRESGPGLVKPTQTLTLTCTLYGFSLSTSDMGVDWIRQPPGKGLEWLAHIWWDDVKRYNPALKSRLTISKDTSKNQVVLKLTSVDPVDTATYYCARTVSSGYIYYAMDYWGQGTLVTVSSASTKGPEVQLVQSGAEVKKPGSSVKVSCKASGYTFTDYEIHWVRQAPGQGLEWMGVNDPESGGTFYNQKFDGRVTLTADESTSTAYMELSSLRSEDTAVYYCTRYSKWDSFDGMDYWGQGTTVTVSS
VL: DIQMTQSPSSLSASVGDRVTISCRASQDIRNYLNWYQQKPGKAPKLLIFYTSKLHSGVPSRFSGSGSGTDYTLTISSLQPEDIATYYCQQGLTPPLTFGGGTKVEIKRTVAAPDIQMTQSPSSLSASVGDRVTITCRASSGIISYIDWFQQKPGKAPKRLIYATFDLASGVPSRFSGSGSGTDYTLTISSLQPEDFATYYCRQVGSYPETFGQGTKLEIKR
B4: DVD2184 (bispecific antibody)
VH: EVQLVQSGAEVKKPGASVKVSCKASGYTFTSYWMHWVRQAPGQGLEWIGNINPKGGSNIYNEKFQGRVTMTRDTSISTAYMELSRLRSDDTAVYYCARLDYFGDSFDLWGQGTTVTVSSASTKGPEVQLVQSGAEVKKPGSSVKVSCKASGYTFTDYEIHWVRQAPGQGLEWMGVNDPESGGTFYNQKFDGRVTLTADESTSTAYMELSSLRSEDTAVYYCTRYSKWDSFDGMDYWGQGTTVTVSS
VL: DIQMTQSPSSLSASVGDRVTITCRASQGIRNYLNWYQQKPGKAPKLLIYYASNLEVGVPSRFSGSGSGTDYTLTISSLQPEDFATYYCQQDNRFPYTFGGGTKVEIKRTVAAPDIQMTQSPSSLSASVGDRVTITCRASSGIISYIDWFQQKPGKAPKRLIYATFDLASGVPSRFSGSGSGTDYTLTISSLQPEDFATYYCRQVGSYPETFGQGTKLEIKR
B5: DVD2149 (bispecific antibody)
VH: EVQLVQSGAEVKKPGSSVKVSCKASGYTFTDYEIHWVRQAPGQGLEWMGVNDPESGGTFYNQKFDGRVTLTADESTSTAYMELSSLRSEDTAVYYCTRYSKWDSFDGMDYWGQGTTVTVSSASTKGPEVTLRESGPGLVKPTQTLTLTCTLYGFSLSTSDMGVDWIRQPPGKGLEWLAHIWWDDVKRYNPALKSRLTISKDTSKNQVVLKLTSVDPVDTATYYCARTVSSGYIYYAMDYWGQGTLVTVSS
VL: DIQMTQSPSSLSASVGDRVTITCRASSGIISYIDWFQQKPGKAPKRLIYATFDLASGVPSRFSGSGSGTDYTLTISSLQPEDFATYYCRQVGSYPETFGQGTKLEIKRTVAAPDIQMTQSPSSLSASVGDRVTISCRASQDIRNYLNWYQQKPGKAPKLLIFYTSKLHSGVPSRFSGSGSGTDYTLTISSLQPEDIATYYCQQGLTPPLTFGGGTKVEIKR
B6: DVD2150 (bispecific antibody)
VH: B3 VH
VL: DIQMTQSPSSLSASVGDRVTISCRASQDIRNYLNWYQQKPGKAPKLLIFYTSKLHSGVPSRFSGSGSGTDYTLTISSLQPEDIATYYCQQGLTPPLTFGGGTKVEIKRTVAAPSVFIFPPDIQMTQSPSSLSASVGDRVTITCRASSGIISYIDWFQQKPGKAPKRLIYATFDLASGVPSRFSGSGSGTDYTLTISSLQPEDFATYYCRQVGSYPETFGQGTKLEIKR
B7: DVD2151 (bispecific antibody)
VH: B5 VH
VL: DIQMTQSPSSLSASVGDRVTITCRASSGIISYIDWFQQKPGKAPKRLIYATFDLASGVPSRFSGSGSGTDYTLTISSLQPEDFATYYCRQVGSYPETFGQGTKLEIKRTVAAPSVFIFPPDIQMTQSPSSLSASVGDRVTISCRASQDIRNYLNWYQQKPGKAPKLLIFYTSKLHSGVPSRFSGSGSGTDYTLTISSLQPEDIATYYCQQGLTPPLTFGGGTKVEIKR
B8: DVD2152 (bispecific antibody)
VH: EVTLRESGPGLVKPTQTLTLTCTLYGFSLSTSDMGVDWIRQPPGKGLEWLAHIWWDDVKRYNPALKSRLTISKDTSKNQVVLKLTSVDPVDTATYYCARTVSSGYIYYAMDYWGQGTLVTVSSASTKGPSVFPLAPEVQLVQSGAEVKKPGSSVKVSCKASGYTFTDYEIHWVRQAPGQGLEWMGVNDPESGGTFYNQKFDGRVTLTADESTSTAYMELSSLRSEDTAVYYCTRYSKWDSFDGMDYWGQGTTVTVSS
VL: B3 VL
B9: DVD2153 (bispecific antibody)
VH: EVQLVQSGAEVKKPGSSVKVSCKASGYTFTDYEIHWVRQAPGQGLEWMGVNDPESGGTFYNQKFDGRVTLTADESTSTAYMELSSLRSEDTAVYYCTRYSKWDSFDGMDYWGQGTTVTVSSASTKGPSVFPLAPEVTLRESGPGLVKPTQTLTLTCTLYGFSLSTSDMGVDWIRQPPGKGLEWLAHIWWDDVKRYNPALKSRLTISKDTSKNQVVLKLTSVDPVDTATYYCARTVSSGYIYYAMDYWGQGTLVTVSS
VL: B5 VL

Legend:
[1] = biological target: T1, Recombinant Human IL-17 (human, UniProt Q16552 20-155, limits assumed); test: cell-based or functional assay
T1 sequence (looked up): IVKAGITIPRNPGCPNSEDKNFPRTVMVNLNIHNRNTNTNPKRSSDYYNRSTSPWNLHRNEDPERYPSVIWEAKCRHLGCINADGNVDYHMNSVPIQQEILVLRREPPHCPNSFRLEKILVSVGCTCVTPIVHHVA

[2] = biological target: Recombinant Human IL-13 (human, UniProt P35225 35-146, limits assumed); test: cell-based or functional assay
Recombinant Human IL-13, sequence (P35225 35-146 limits assumed): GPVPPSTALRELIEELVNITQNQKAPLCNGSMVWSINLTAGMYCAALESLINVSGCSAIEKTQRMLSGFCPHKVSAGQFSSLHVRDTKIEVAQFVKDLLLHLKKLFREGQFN

Binder	C-Terminal VD IL17 Neutralization Assay IC50 [1] [pM]	N-Terminal VD IL13 Neutralization Assay IC50 [2] [pM]	N-Terminal VD IL17 Neutralization Assay IC50 [1] [pM]	C-Terminal VD IL13 Neutralization Assay IC50 [2] [pM]
B1	56.7	91	–	–
B2	266	77	–	–
B3	11.6	54	–	–
B4	405	121	–	–
B5	–	–	2.8	1430
B6	4	99	–	–
B7	–	–	17.9	526
B8	6.9	112	–	–
B9	–	–	4.9	2440
